According to PMC4013287 (Arteriosclerosis, thrombosis, and vascular biology, 2013):

How the values were obtained:
[1] = target: type 1 collagen (UniProt P02452); experiment: ELISA
[2] = target: von Willebrand factor (UniProt P04275 764-2813); experiment: ELISA

Sequence of type 1 collagen (P02452 23-1218, chain 1 of 2): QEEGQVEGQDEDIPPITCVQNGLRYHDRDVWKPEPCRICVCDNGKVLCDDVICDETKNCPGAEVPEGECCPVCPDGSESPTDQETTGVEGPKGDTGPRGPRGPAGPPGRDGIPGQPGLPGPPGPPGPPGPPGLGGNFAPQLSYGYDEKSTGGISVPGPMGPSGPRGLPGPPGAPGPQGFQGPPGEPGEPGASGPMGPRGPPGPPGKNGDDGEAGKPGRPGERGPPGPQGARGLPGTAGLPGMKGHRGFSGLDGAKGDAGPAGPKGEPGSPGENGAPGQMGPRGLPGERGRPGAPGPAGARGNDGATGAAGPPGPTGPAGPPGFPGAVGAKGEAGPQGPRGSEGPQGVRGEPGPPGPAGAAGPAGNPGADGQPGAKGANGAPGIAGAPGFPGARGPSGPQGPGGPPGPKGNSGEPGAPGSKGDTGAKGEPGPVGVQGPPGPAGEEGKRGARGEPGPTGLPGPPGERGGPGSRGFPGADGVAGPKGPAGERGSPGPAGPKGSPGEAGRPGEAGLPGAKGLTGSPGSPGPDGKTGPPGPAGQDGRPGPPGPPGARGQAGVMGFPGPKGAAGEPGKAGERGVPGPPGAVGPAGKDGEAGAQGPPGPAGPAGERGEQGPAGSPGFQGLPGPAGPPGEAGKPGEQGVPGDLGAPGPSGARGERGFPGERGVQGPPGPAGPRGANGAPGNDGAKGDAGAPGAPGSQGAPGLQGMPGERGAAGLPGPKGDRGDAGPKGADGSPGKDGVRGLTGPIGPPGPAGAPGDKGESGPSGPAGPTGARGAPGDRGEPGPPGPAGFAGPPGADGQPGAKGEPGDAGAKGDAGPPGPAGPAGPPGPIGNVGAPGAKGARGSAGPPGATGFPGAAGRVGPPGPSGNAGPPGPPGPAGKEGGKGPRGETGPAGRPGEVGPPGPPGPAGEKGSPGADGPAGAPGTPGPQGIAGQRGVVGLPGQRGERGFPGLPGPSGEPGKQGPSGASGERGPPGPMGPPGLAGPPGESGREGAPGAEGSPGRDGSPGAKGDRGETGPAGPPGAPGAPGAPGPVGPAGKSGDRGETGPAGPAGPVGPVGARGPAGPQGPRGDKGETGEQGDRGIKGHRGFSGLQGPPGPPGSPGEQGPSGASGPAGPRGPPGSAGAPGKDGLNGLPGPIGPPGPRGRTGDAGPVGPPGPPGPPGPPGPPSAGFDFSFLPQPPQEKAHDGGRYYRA
Sequence of type 1 collagen (P08123 80-1119, chain 2 of 2, further chain): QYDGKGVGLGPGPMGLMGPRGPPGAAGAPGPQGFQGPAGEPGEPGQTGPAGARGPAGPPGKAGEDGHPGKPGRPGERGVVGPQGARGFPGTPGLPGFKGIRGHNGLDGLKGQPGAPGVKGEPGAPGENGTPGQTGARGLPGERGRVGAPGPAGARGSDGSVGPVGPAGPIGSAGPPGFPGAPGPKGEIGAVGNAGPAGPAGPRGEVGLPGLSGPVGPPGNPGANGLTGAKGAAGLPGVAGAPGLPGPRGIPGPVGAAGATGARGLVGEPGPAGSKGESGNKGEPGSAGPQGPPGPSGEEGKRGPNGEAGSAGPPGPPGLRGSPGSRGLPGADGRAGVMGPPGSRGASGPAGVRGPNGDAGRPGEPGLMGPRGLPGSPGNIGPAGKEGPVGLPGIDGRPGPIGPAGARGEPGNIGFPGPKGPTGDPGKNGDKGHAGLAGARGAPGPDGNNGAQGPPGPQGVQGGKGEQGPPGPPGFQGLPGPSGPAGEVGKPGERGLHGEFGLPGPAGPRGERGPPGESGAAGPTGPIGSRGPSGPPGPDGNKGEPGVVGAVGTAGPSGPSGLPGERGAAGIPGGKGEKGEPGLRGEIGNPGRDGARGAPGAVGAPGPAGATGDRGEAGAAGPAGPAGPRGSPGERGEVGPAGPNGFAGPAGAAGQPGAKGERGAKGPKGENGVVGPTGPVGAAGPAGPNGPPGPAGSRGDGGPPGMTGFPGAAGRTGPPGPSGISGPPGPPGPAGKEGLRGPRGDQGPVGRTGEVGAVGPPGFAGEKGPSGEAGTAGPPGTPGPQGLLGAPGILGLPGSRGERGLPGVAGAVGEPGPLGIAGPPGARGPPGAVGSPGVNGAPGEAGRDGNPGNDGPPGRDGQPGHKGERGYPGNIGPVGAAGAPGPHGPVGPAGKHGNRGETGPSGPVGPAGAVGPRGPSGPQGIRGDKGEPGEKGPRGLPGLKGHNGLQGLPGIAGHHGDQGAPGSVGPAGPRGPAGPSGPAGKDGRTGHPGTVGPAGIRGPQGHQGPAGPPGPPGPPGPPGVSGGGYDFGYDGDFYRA

Kd [1]: 257 nM
Kd [2]: 8.2 ± 1.6 nM
B1: Recombinant human full-length ADAMTS13 (enzyme, UniProt Q76LX8 75-1427, looked up)
chain: AAGGILHLELLVAVGPDVFQAHQEDTERYVLTNLNIGAELLRDPSLGAQFRVHLVKMVILTEPEGAPNITANLTSSLLSVCGWSQTINPEDDTDPGHADLVLYITRFDLELPDGNRQVRGVTQLGGACSPTWSCLITEDTGFDLGVTIAHEIGHSFGLEHDGAPGSGCGPSGHVMASDGAAPRAGLAWSPCSRRQLLSLLSAGRARCVWDPPRPQPGSAGHPPDAQPGLYYSANEQCRVAFGPKAVACTFAREHLDMCQALSCHTDPLDQSSCSRLLVPLLDGTECGVEKWCSKGRCRSLVELTPIAAVHGRWSSWGPRSPCSRSCGGGVVTRRRQCNNPRPAFGGRACVGADLQAEMCNTQACEKTQLEFMSQQCARTDGQPLRSSPGGASFYHWGAAVPHSQGDALCRHMCRAIGESFIMKRGDSFLDGTRCMPSGPREDGTLSLCVSGSCRTFGCDGRMDSQQVWDRCQVCGGDNSTCSPRKGSFTAGRAREYVTFLTVTPNLTSVYIANHRPLFTHLAVRIGGRYVVAGKMSISPNTTYPSLLEDGRVEYRVALTEDRLPRLEEIRIWGPLQEDADIQVYRRYGEEYGNLTRPDITFTYFQPKPRQAWVWAAVRGPCSVSCGAGLRWVNYSCLDQARKELVETVQCQGSQQPPAWPEACVLEPCPPYWAVGDFGPCSASCGGGLRERPVRCVEAQGSLLKTLPPARCRAGAQQPAVALETCNPQPCPARWEVSEPSSCTSAGGAGLALENETCVPGADGLEAPVTEGPGSVDEKLPAPEPCVGMSCPPGWGHLDATSAGEKAPSPWGSIRTGAQAAHVWTPAAGSCSVSCGRGLMELRFLCMDSALRVPVQEELCGLASKPGSRREVCQAVPCPARWQYKLAACSVSCGRGVVRRILYCARAHGEDDGEEILLDTQCQGLPRPEPQEACSLEPCPPRWKVMSLGPCSASCGLGTARRSVACVQLDQGQDVEVDEAACAALVRPEASVPCLIADCTYRWHVGTWMECSVSCGDGIQRRRDTCLGPQAQAPVPADFCQHLPKPVTVRGCWAGPCVGQGTPSLVPHEEAAAPGRTTATPAGASLEWSQARGLLFSPAPQPRRLLPGPQENSVQSSACGRQHLEPTGTIDMRGPGQADCAVAIGRPLGEVVTLRVLESSLNCSAGDMLLLWGRLTWRKMCRKLLDMTFSSKTNTLVVRQRCGRPGGGVLLRYGSQLAPETFYRECDMQLFGPWGEIVSPSLSPATSNAGGCRLFINVAPHARIAIHALATNMGAGTEGANASYILIRDTHSLRTTAFHGQQVLYWESESSQAEMEFSEGFLKAQASLRGQYWTLQSWVPEMQDPQSWKGKEGT
